Results taken from patent US20140357577A1, “HIV Membrane Fusion Inhibitors” (priority 2011, published 2014).
Starred links: 1 amine or outer side, 2 acyl side, 3 side chain; linkers in the order of their positions; H or OH if unused. Non-standard residues stand in square brackets, D forms with d. *: point of attachment. Palmitoyl = CCCCCCCCCCCCCCCC(=O)*; Suc = O=C(CCC(=O)[*:2])[*:1]; Pentanoyl = CCCCC(=O)*

B1: peptide 13 (peptide)
peptide: Suc-ANYLALIEALIRAAQEQQEKNEAALK(Palmitoyl)-NH2
SMILES: CCCCCCCCCCCCCCCC(=O)NCCCC[C@H](NC(=O)[C@H](CC(C)C)NC(=O)[C@H](C)NC(=O)[C@H](C)NC(=O)[C@H](CCC(=O)O)NC(=O)[C@H](CC(N)=O)NC(=O)[C@H](CCCCN)NC(=O)[C@H](CCC(=O)O)NC(=O)[C@H](CCC(N)=O)NC(=O)[C@H](CCC(N)=O)NC(=O)[C@H](CCC(=O)O)NC(=O)[C@H](CCC(N)=O)NC(=O)[C@H](C)NC(=O)[C@H](C)NC(=O)[C@H](CCCNC(=N)N)NC(=O)[C@@H](NC(=O)[C@H](CC(C)C)NC(=O)[C@H](C)NC(=O)[C@H](CCC(=O)O)NC(=O)[C@@H](NC(=O)[C@H](CC(C)C)NC(=O)[C@H](C)NC(=O)[C@H](CC(C)C)NC(=O)[C@H](Cc1ccc(O)cc1)NC(=O)[C@H](CC(N)=O)NC(=O)[C@H](C)NC(=O)CCC(=O)O)[C@@H](C)CC)[C@@H](C)CC)C(N)=O
B2: peptide 12 (peptide)
peptide: Suc-[dA]NYLALIEALIRAAQEQQEKNEAAL[dR]-NH2
SMILES: CC[C@H](C)[C@H](NC(=O)[C@H](CC(C)C)NC(=O)[C@H](C)NC(=O)[C@H](CCC(=O)O)NC(=O)[C@@H](NC(=O)[C@H](CC(C)C)NC(=O)[C@H](C)NC(=O)[C@H](CC(C)C)NC(=O)[C@H](Cc1ccc(O)cc1)NC(=O)[C@H](CC(N)=O)NC(=O)[C@@H](C)NC(=O)CCC(=O)O)[C@@H](C)CC)C(=O)N[C@@H](CCCNC(=N)N)C(=O)N[C@@H](C)C(=O)N[C@@H](C)C(=O)N[C@@H](CCC(N)=O)C(=O)N[C@@H](CCC(=O)O)C(=O)N[C@@H](CCC(N)=O)C(=O)N[C@@H](CCC(N)=O)C(=O)N[C@@H](CCC(=O)O)C(=O)N[C@@H](CCCCN)C(=O)N[C@@H](CC(N)=O)C(=O)N[C@@H](CCC(=O)O)C(=O)N[C@@H](C)C(=O)N[C@@H](C)C(=O)N[C@@H](CC(C)C)C(=O)N[C@H](CCCNC(=N)N)C(N)=O
B3: peptide 15 (peptide)
peptide: Pentanoyl-ANYLALIEALIRAAQEQQEKNEAALR-NH2
SMILES: CCCCC(=O)N[C@@H](C)C(=O)N[C@@H](CC(N)=O)C(=O)N[C@@H](Cc1ccc(O)cc1)C(=O)N[C@@H](CC(C)C)C(=O)N[C@@H](C)C(=O)N[C@@H](CC(C)C)C(=O)N[C@H](C(=O)N[C@@H](CCC(=O)O)C(=O)N[C@@H](C)C(=O)N[C@@H](CC(C)C)C(=O)N[C@H](C(=O)N[C@@H](CCCNC(=N)N)C(=O)N[C@@H](C)C(=O)N[C@@H](C)C(=O)N[C@@H](CCC(N)=O)C(=O)N[C@@H](CCC(=O)O)C(=O)N[C@@H](CCC(N)=O)C(=O)N[C@@H](CCC(N)=O)C(=O)N[C@@H](CCC(=O)O)C(=O)N[C@@H](CCCCN)C(=O)N[C@@H](CC(N)=O)C(=O)N[C@@H](CCC(=O)O)C(=O)N[C@@H](C)C(=O)N[C@@H](C)C(=O)N[C@@H](CC(C)C)C(=O)N[C@@H](CCCNC(=N)N)C(N)=O)[C@@H](C)CC)[C@@H](C)CC
B4: peptide 14 (peptide)
peptide: Pentanoyl-ANYAALIEALIRAAQEQQEKNEAALR-NH2
SMILES: CCCCC(=O)N[C@@H](C)C(=O)N[C@@H](CC(N)=O)C(=O)N[C@@H](Cc1ccc(O)cc1)C(=O)N[C@@H](C)C(=O)N[C@@H](C)C(=O)N[C@@H](CC(C)C)C(=O)N[C@H](C(=O)N[C@@H](CCC(=O)O)C(=O)N[C@@H](C)C(=O)N[C@@H](CC(C)C)C(=O)N[C@H](C(=O)N[C@@H](CCCNC(=N)N)C(=O)N[C@@H](C)C(=O)N[C@@H](C)C(=O)N[C@@H](CCC(N)=O)C(=O)N[C@@H](CCC(=O)O)C(=O)N[C@@H](CCC(N)=O)C(=O)N[C@@H](CCC(N)=O)C(=O)N[C@@H](CCC(=O)O)C(=O)N[C@@H](CCCCN)C(=O)N[C@@H](CC(N)=O)C(=O)N[C@@H](CCC(=O)O)C(=O)N[C@@H](C)C(=O)N[C@@H](C)C(=O)N[C@@H](CC(C)C)C(=O)N[C@@H](CCCNC(=N)N)C(N)=O)[C@@H](C)CC)[C@@H](C)CC

target: gp41 of HIV-1 strain HXB2D with mutation V38A (HIV-1 strain HXB2D, UniProt P04578); assay: cell-based or functional assay

Binder | fold change in EC50, HIV-HXB2D V38A mutant [fold]
B1 | 2
B2 | 51
B3 | 18
B4 | 46
